Source: the supplement of paper PMC9233669
This sample holds only a part of the variants without activity.

Columns and labels:
[1] = test system: biotinyl-Met-oxazolone; experiment: self-aminoacylation, catalytic enhancement (BMO) (fold over background); higher = more active; k-Seq, kA / k0A0; sequences stand for … in GGGAAUGGAUCCACAUCUACGAAUUC…UUCACUGCAGACUUGACGAAGCUG
Summary of the method: (§1)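 The uncatalyzed rate is the low-activity peak of a bimodal Gaussian fit, and catalytic enhancement is median kA divided by it. The kA values came from pseudo-first-order fits, with 1000 bootstraps, of per-sequence fraction reacted measured by streptavidin capture, triplicate qPCR and Illumina sequencing. Mutagenized RNA pools with a 21-nt variable region (0.43 μM) were reacted with each biotinyl-aminoacyl-oxazolone at 2–1250 μM in 50 μL HEPES/NaCl/KCl/MgCl2/CaCl2 buffer with 5% acetonitrile, pH 6.9–7.0, for 90 minutes at room temperature.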

[2] = test system: biotinyl-Phe-oxazolone; experiment: self-aminoacylation, catalytic enhancement (BFO) (fold over background); higher = more active; k-Seq, kA / k0A0; sequences stand for … in GGGAAUGGAUCCACAUCUACGAAUUC…UUCACUGCAGACUUGACGAAGCUG
Summary of the method: as §1

[3] = test system: biotinyl-Leu-oxazolone; experiment: self-aminoacylation, catalytic enhancement (BLO) (fold over background); higher = more active; k-Seq, kA / k0A0; sequences stand for … in GGGAAUGGAUCCACAUCUACGAAUUC…UUCACUGCAGACUUGACGAAGCUG
Summary of the method: as §1

[4] = test system: biotinyl-Ile-oxazolone; experiment: self-aminoacylation, catalytic enhancement (BIO) (fold over background); higher = more active; k-Seq, kA / k0A0; sequences stand for … in GGGAAUGGAUCCACAUCUACGAAUUC…UUCACUGCAGACUUGACGAAGCUG
Summary of the method: as §1

[5] = test system: biotinyl-Trp-oxazolone; experiment: self-aminoacylation, catalytic enhancement (BWO) (fold over background); higher = more active; k-Seq, kA / k0A0; sequences stand for … in GGGAAUGGAUCCACAUCUACGAAUUC…UUCACUGCAGACUUGACGAAGCUG
Summary of the method: as §1

[6] = test system: biotinyl-Val-oxazolone; experiment: self-aminoacylation, catalytic enhancement (BVO) (fold over background); higher = more active; k-Seq, kA / k0A0; sequences stand for … in GGGAAUGGAUCCACAUCUACGAAUUC…UUCACUGCAGACUUGACGAAGCUG
Summary of the method: as §1

Sequence: AUUCACCUAGGCGAUCGGGUG [Fam2.2 aminoacylation ribozyme variant]
- self-aminoacylation [1]: 3.5
- self-aminoacylation [2]: 20.4
- self-aminoacylation [3]: 4.89
- self-aminoacylation [4]: 2.88
- self-aminoacylation [5]: 3.78
- self-aminoacylation [6]: 3.52

Sequence: CCCCACUUCCAGCAAUCGGUC [Fam1B.1 aminoacylation ribozyme variant]
- self-aminoacylation [1]: 1.78
- self-aminoacylation [2]: 1.79
- self-aminoacylation [3]: 2.35
- self-aminoacylation [4]: 2.18
- self-aminoacylation [5]: 2.16
- self-aminoacylation [6]: 2.48

Sequence: AUUCACAUAGGUAAUCGGGUG [Fam2.2 aminoacylation ribozyme variant]
- self-aminoacylation [1]: 4.85
- self-aminoacylation [2]: 34
- self-aminoacylation [3]: 5.2
- self-aminoacylation [4]: 2.65
- self-aminoacylation [5]: 4.8
- self-aminoacylation [6]: 2.6

Sequence: AUUCACCUUGGUCACCGGGUG [Fam2.2 aminoacylation ribozyme variant]
- self-aminoacylation [1]: 5.58
- self-aminoacylation [2]: 27.5
- self-aminoacylation [3]: 6.72
- self-aminoacylation [4]: 4.82
- self-aminoacylation [5]: 5.4
- self-aminoacylation [6]: 4.2

Sequence: AUUAGCCUGGUCAGCGAGUGA [Fam2.1 aminoacylation ribozyme variant]
- self-aminoacylation [1]: 3.65
- self-aminoacylation [2]: 9.96
- self-aminoacylation [3]: 5.47
- self-aminoacylation [4]: 3.09
- self-aminoacylation [5]: 4.85
- self-aminoacylation [6]: 3.39

Sequence: AUUACCCGGGUCAUCGAGGGA [Fam2.1 aminoacylation ribozyme variant]
- self-aminoacylation [1]: 1.32
- self-aminoacylation [2]: 3.47
- self-aminoacylation [3]: 1.61
- self-aminoacylation [4]: 1.46
- self-aminoacylation [5]: 0.834
- self-aminoacylation [6]: 1.32

Sequence: AAGAUUGCUAUUAGUCGCAAG [Fam3.1 aminoacylation ribozyme variant]
- self-aminoacylation [1]: 1.55
- self-aminoacylation [2]: 1.79
- self-aminoacylation [3]: 1.62
- self-aminoacylation [4]: 1.73
- self-aminoacylation [5]: 1.87
- self-aminoacylation [6]: 1.6

Sequence: AGGUUUGCUAAUCGUCGCAAG [Fam3.1 aminoacylation ribozyme variant]
- self-aminoacylation [1]: 1.44
- self-aminoacylation [2]: 2.43
- self-aminoacylation [3]: 1.45
- self-aminoacylation [4]: 1.42
- self-aminoacylation [5]: 1.98
- self-aminoacylation [6]: 1.34

Sequence: ACACACUUUAAGCAAUCGGUC [Fam1B.1 aminoacylation ribozyme variant]
- self-aminoacylation [1]: 0.832
- self-aminoacylation [2]: 1.34
- self-aminoacylation [3]: 0.948
- self-aminoacylation [4]: 1.06
- self-aminoacylation [5]: 1.03
- self-aminoacylation [6]: 0.949

Sequence: GUUCUCCUAGGUCAUCGGGUG [Fam2.2 aminoacylation ribozyme variant]
- self-aminoacylation [1]: 9.55
- self-aminoacylation [2]: 55.1
- self-aminoacylation [3]: 13.7
- self-aminoacylation [4]: 6.21
- self-aminoacylation [5]: 9.42
- self-aminoacylation [6]: 6.51
